The term Kd denotes a measure of binding affinity in units of concentration. As a reminder, the koff is a measure of how fast the partners let go of each other. Usually kon stands for a measure of how fast the partners come together. Broadly, the EC50 is the concentration giving half of the maximal effect.

In one experiment the target is T1, Rhesus monkey MUC16-His (rhesus monkey).
T1 construct: The entry includes the C-terminal 6xHis tag; also called membrane-proximal end of the extracellular region of the rhesus monkey MUC16 protein
T1 chain: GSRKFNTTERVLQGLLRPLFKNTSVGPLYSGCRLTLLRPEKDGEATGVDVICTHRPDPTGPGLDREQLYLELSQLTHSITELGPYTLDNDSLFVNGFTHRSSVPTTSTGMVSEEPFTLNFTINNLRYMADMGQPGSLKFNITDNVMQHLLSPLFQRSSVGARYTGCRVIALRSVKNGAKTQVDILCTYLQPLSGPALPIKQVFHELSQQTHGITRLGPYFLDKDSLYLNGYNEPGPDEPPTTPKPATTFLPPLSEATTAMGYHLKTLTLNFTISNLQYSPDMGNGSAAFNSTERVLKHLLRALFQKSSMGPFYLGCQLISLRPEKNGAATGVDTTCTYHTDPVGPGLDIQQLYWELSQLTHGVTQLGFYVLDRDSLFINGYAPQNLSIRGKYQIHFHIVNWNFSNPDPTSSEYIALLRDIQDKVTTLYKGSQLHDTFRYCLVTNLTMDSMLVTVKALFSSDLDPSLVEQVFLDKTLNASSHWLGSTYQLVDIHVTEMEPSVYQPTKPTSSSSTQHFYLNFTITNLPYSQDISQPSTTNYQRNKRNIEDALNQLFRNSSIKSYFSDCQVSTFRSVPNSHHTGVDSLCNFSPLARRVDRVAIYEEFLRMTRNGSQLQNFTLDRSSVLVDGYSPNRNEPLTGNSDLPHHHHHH
The experiment is described as follows: BLI (ForteBio Octet RED96), antibody on AHC sensor, 50 nM antigen, 1:1 model. From the text: (§1) The binding affinity of the anti-MUC-16 antibodies for the membrane-proximal end of the extracellular region of the human MUC16 protein (human MUC16-His, Table 26) and the membrane-proximal end of the extracellular region of the rhesus monkey MUC16 protein (rhesus monkey MUC16-His, Table 26) was detected by ForteBio Octet RED96, respectively. According to the manufacturer's instructions, an AHC sensor (ForteBio, Cat #18-5060) was placed in a running buffer (lx PBS, Hyclone, Cat #SH30256.01, containing 0.02% Tween 20, pH 7.0) and pre-equilibrated at room temperature for 10 min. In a 96-well plate, the kinetic assay was performed according to the following steps: a) equilibrating the baseline for 100 s with the running buffer; b) diluting the anti-MUC-16 antibodies with the running buffer to 5 μg/mL, immobilizing for 200 s, and stopping; c) equilibrating the baseline for 300 s with the running buffer; and d) diluting the human or rhesus monkey MUC16 protein with the running buffer to 50 nM, binding for 200 s, and dissociating for 600 s. The experimental data were fitted and calculated using a Fortebio Data Analysis software 1:1 binding model.

For the next experiment, the target named is T2, Human MUC16-His (human).
T2 construct: The entry includes the C-terminal 6xHis tag; also called membrane-proximal end of the extracellular region of the human MUC16 protein; Human MUC16 protein
T2 chain: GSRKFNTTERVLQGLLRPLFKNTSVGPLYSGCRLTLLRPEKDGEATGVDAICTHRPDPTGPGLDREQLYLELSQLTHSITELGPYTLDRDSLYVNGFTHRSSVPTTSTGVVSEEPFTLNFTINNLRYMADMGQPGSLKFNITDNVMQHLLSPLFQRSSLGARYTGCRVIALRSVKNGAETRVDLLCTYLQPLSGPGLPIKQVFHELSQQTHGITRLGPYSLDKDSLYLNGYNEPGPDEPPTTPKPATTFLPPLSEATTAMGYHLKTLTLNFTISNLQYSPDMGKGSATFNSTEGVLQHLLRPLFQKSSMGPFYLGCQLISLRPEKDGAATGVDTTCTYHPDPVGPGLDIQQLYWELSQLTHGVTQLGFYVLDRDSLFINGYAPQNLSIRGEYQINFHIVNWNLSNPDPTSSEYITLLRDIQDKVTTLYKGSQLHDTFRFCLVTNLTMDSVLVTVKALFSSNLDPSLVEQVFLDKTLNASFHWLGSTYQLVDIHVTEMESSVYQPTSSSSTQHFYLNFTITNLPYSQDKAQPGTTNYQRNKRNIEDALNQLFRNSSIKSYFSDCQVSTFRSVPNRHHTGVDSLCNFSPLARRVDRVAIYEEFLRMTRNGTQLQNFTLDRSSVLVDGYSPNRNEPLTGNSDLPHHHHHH
Described as above.
Source text: as §1

Experiment [1] deals with T3, rhesus monkey MUC16 protein (ECT_TM RhMuc16) on 293T cells (rhesus monkey).
T3 chain: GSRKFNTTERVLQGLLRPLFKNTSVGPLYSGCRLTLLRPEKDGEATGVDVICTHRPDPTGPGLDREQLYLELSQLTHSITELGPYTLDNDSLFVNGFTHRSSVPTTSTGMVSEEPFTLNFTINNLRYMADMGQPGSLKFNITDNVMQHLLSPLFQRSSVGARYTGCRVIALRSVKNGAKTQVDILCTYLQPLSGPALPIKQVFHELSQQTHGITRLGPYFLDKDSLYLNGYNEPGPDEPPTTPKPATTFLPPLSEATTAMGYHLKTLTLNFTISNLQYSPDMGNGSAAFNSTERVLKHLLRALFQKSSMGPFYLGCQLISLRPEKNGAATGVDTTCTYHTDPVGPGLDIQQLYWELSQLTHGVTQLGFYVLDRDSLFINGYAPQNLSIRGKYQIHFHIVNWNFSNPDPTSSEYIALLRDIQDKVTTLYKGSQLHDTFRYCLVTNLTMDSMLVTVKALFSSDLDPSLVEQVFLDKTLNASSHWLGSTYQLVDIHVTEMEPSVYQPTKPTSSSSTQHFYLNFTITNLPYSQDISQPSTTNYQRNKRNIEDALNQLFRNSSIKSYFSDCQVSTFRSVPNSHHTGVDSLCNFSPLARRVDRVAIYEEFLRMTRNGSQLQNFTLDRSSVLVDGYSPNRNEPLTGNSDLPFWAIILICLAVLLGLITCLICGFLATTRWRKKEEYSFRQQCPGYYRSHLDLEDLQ
Briefly: flow cytometry, 293T/rhesus MUC16 cells, PE anti-human IgG Fc secondary, MFI; EC50 table under the plot, unit from the axis Conc.(nM). How it is done:
The serially diluted anti-human MUC16 antibodies (at an initial concentration of 200 nM, 4-fold dilution, 8 points in total) obtained in the present application were added to the cells, and the cells were incubated at 4° C. for 30 min. The cells were washed twice with PBS, and then fluorescent secondary antibody R-PE-conjugated AffiniPure Goat Anti-Human IgG, Fcγ Fragment Specific (Jackson ImmunoResearch, Cat #109-116-098) was added. The cells were incubated at 4° C. for 30 min. The cells were washed twice with PBS and then resuspended, and finally, fluorescence signals were detected using a BD Accuri C5 (BD Bioscience) flow cytometer.

B1: anti-MUC16 antibody 776.1(C33S) (antibody, human IgG1, kappa, L234A L235A, V domains shown)
VH: EVQLQQSGPELVKPGASVKISCKASGYTFTDYNIHWVKQSHGKILEWIGYIYPYNGVSDYNQNFKSKATLIVDNSSNTAYMELRSLTSEDSAVYYCARWDFGSGYYFDYWGQGTTLTVSS
VL: QIVLSQSPAILFASPGETVTMTCRASSSVIYMSWNQQKPGSSPKPWIYGTSTLASGVPTRFSGSGSGTSYSLTISRVEAEDAATYYCQQWSSNPFTFGSGTKLEIKR
Take B1: in the experiment with Rhesus monkey MUC16-His, the Kd was found to be 1.03 nM, the koff came out at 0.000826 s⁻¹ and the kon worked out at 803000 M⁻¹ s⁻¹. In the experiment with Human MUC16-His, this molecule returned a dissociation constant (Kd) of 0.921 nM, a koff of 0.000245 s⁻¹ and a kon of 266000 M⁻¹ s⁻¹. The molecule further returned an EC50 in experiment [1] of 5.01 nM.
